Assay results from PMC6378967.

Experiments:
[1] = target: WT human renin (human) (UniProt P00797)
[2] = target: biotinylated renin D226A mutant (human); assay: BLI; FortéBio Octet Red96; biotinylated renin D226A (2.5 μg/ml) loaded on streptavidin biosensors; 2-fold dilutions of AGT in 10 mM Tris, pH 7.4, 0.15 M NaCl, 1% BSA; 1:1 binding model, global fit; KD = koff/kon; three independent assays
[3] = target: WT human renin (human) (UniProt P00797); remark: listed apart in the source

Sequence of WT human renin (human) (P00797 67-406): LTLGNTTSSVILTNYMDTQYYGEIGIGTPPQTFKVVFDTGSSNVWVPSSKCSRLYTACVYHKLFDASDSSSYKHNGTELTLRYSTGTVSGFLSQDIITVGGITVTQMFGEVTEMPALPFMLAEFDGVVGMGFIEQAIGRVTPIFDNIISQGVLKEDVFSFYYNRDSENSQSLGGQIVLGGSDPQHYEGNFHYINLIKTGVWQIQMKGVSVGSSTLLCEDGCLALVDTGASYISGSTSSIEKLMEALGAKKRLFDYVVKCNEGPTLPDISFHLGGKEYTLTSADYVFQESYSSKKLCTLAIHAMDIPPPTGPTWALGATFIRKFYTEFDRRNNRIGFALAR

Substance | Km of cleavage of AGT by WT human renin (released Ang I quantified by immunoassay) [1] [µM] | kcat of cleavage of AGT by WT human renin (released Ang I quantified by immunoassay) [1] [s⁻¹] | kcat/Km of cleavage of AGT by WT human renin (released Ang I quantified by immunoassay) [1] [M⁻¹ s⁻¹] | Kd [2] [nM] | koff [2] [s⁻¹] | kon [2] [M⁻¹ s⁻¹] | inhibition of renin cleavage of an AGT fusion protein (intact AGT 1.1 μM) by increasing amounts of spent AGT (product inhibition; blocks renin with intact AGT) [3] [µM]
fully glycosylated WT human angiotensinogen (AGT) (natural protein) | 0.76 | 0.2 | 250000 | – | – | – | –
human AGT N331D (natural protein) | 2.56 | 0.14 | 50000 | 91.5 | 0.000296 | 3210 | –
human AGT N334T (natural protein) | 0.76 | 0.16 | 220000 | 27.9 | 0.000418 | 15000 | –
human AGT R83H (natural protein) | 1.42 | 0.2 | 140000 | 44.6 | 0.000606 | 14000 | –
spent AGT (human AGT without the N-terminal 10-residue angiotensin I peptide) (domain or fragment) | – | – | – | – | – | – | 0.65

The remaining substances from weak to strong by Kd [2], led by results:

Km of cleavage of AGT by WT human renin (released Ang I quantified by immunoassay) [1] [µM] | kcat of cleavage of AGT by WT human renin (released Ang I quantified by immunoassay) [1] [s⁻¹] | kcat/Km of cleavage of AGT by WT human renin (released Ang I quantified by immunoassay) [1] [M⁻¹ s⁻¹] | Kd [2] [nM] | koff [2] [s⁻¹] | kon [2] [M⁻¹ s⁻¹] | inhibition of renin cleavage of an AGT fusion protein (intact AGT 1.1 μM) by increasing amounts of spent AGT (product inhibition; blocks renin with intact AGT) [3] [µM] | Substance
0.56 | 0.35 | 640000 | 5.8 | 0.000209 | 36100 | – | human AGT N14Q variant (natural protein)
0.67 | 0.44 | 650000 | 1.2 | 8.61e-05 | 74600 | – | human AGT quadruple glycosylation mutant N14Q/N137Q/N271Q/N295Q (natural protein)
